Values of other authors, collected in publication PMC11426987.
Like-named read-outs stand apart in the source and are kept apart here.

Columns and labels:
[1] = target: protein S (Homo sapiens) (UniProt P07225)
[2] = target: protein S (Homo sapiens) (UniProt P07225); remark: listed apart in the source

UniProt P07225, sequence (P07225 42-676): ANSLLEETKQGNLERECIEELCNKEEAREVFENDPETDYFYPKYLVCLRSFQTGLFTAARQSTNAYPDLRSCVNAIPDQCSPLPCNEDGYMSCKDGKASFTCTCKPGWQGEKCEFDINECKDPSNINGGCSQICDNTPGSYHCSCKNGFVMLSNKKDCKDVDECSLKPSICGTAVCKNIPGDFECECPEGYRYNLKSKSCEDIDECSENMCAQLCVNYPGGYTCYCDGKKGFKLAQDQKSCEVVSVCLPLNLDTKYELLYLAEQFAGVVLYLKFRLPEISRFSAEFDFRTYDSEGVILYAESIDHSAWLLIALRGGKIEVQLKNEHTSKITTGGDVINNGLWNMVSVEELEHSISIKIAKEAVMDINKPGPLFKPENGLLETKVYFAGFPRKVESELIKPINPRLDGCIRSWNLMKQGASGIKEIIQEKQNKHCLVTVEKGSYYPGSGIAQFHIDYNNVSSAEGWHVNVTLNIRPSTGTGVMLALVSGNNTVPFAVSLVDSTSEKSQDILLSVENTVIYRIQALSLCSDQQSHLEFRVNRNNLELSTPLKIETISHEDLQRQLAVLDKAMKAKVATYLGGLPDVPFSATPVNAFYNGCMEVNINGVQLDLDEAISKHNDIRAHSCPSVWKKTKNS

| Kd [1] [µM] | Kd [2] [µM] | Substance |
| --- | --- | --- |
| > 1 | – | TFPI (from UniProt P10646) |
| – | 0.02 | TFPIα (from UniProt P10646) |
